Assay results taken from the DeepSol protein solubility set.

Assay: soluble on expression in E. coli; label from the status in PepcDB or PDB records

Soluble on expression in E. coli, soluble:
MSLEREVCVNQLLKFLDSIRGRLSFRMVERLFSRGLDENPIFEAISKSGALAKNVIIILGGRGCGKTLVMRYIKHYFEPEGWDYKYFSGDQFKEADAQELMKIISETRDLLENSEDYKVIVGIDDVVEASEAIRDTIKNQLVPLVVDYAGRIKLVISGQSERVVGTTTVLHILEDTLGRSPKAEMLFGEYPGEGHHHHHH
MSKKKGLSAEEKRTRMMEIFSETKDVFQLKDLEKIAPKEKGITAMSVKEVLQSLVDDGMVDCERIGTSNYYWAFPSKALHARKHKLEVLESQLSEGSQKHASLQKSIEKAKIGRCETEERTRLAKELSSLRDQREQLKAEVEKYKDCDPQVVEEIRQANKVAKEAANRWTDNIFAIKSWAKRKFGFEENKIDRTFGIPEDFDYID
MVMWVFGYGSLVWNPGFHYDEKVLGFIKGYKRVFDLACIDHRGTPEHPARTCTLEKAEEAICWGTAFCVRGGPEKERLAMEEDDPLKPAVTGVIVFTSTPDKVSNKYYLGPAPLEDMARFLSSHLAVILYIQRQIATANGPCGNNRDYLFLLEKAMHDIGFVVKGSDLDGFKRDIVFDVLSHFLFHTGHEEDYVIELANEVRKVLAESSTKKVTPVKESRASRVANKSKNNVPTAHQILPHHPEAVATTI
SSTTTGPEAAPKPSAKSIYEQRKRYSTVVMADVSQYHVNHLVTFCLGEEDGVHTVEDASRKLAVMDSQGRVWAQEMLLRVSPSQVTLLDPVSKEELESYPLDAIVRCDAVMPRGRSRSLLLLVCQEPERAQPDVHFFQGLLLGAELIREDIQGALQNYRSGRGERRAAALRATQEELRRGASPAAETPPLQRRPSVRLVINTVEPSAVRGRPQVESIPETEEARKPDQARTTSSADPTSPDLGPRGPELAGLQAERDVDILNHVFDDVESFVSRLQKSAEATRVLEHRERGRRTRRRAAGEGLLTLRAKPPTEAEYTDVLQKIKYAFSLLARLRGNIANPSSPELLHFLFGPLQMIVNTSGGPEFAKSVRRPHLTLEAVTLLRDNVTPGENELWTSLGDSWTCPGVELPPEEGSPYSPEFYNGWEPPATDPQGRPWEDPVEKQLQHEKRRRQQSAPQVAVNGKIQNWKLSPS
AEDIFGELFNEANNFYIRANSLQDRIDRLAVKVTQLDSTVEEVSLQDINMKKAFKSSTVQDQQVVSKNSIPNPVADIYNQSDKPPPLNILTPYRDDKKDGLKFYTDPSYFFDLWKEKMLQDTEDKRKEKRRQKEQKRIDGTTREVKKVRKARNRRQEWNMMAYDKELRPDNRLSQSVYHGASSEGSLSPDTRSHASDVTDYSYPATPNHSLHPQPVTPSYAAGDVPPHGPASQAAEHEYRPPSASARHMALNRPQQPPPPPPPQAPEGSQASAPMAPADYGMLPAQIIEYYNPSGPPPPPPPPVIPSAQTAFVSPLQMPMQPPFPASASSTHAAPPHPPSTGLLVTAPPPPGPPPPPPGPPGPGSSLSSSPMHGPPVAEAKRQEPAQPPISDARSDLLAAIRMGIQLKKVQEQREQEAKREPVGNDVATILSRRIAVEYSDSDDDSEFDENDWSD
MAGLRSFSIVMPAYNVVTQRGERIFRETLESIAASCRYLQQHFPYTPEGELILISDGSTDRTCDVAMAGWPNAVPLQLVGLPTNVGIAAARNIGVRLAKGEVIFFCDADDLYRPEHLFLALSVLNQPLPEPYAPAYFGAVRTGVYCRDRLHPYWHKSLEQTLVLNLAVRREVHEFIGGFPEDEVFRQFRYGAEDVAYAYWLHQFCHTARLEQRTVEYRRFPLEHHHHHH
MTAFIKFDGKKSSDFDLRIINDVEHDSSFYDVDQVKVPGRDGVVLKDNKRLEAIERSYPLRLYSKRRLTEVETDISNWLNVKGWKDLELSWEPDYIYKATHITPFSIKEVLRNFGRLKINFLIHPIKYLKTGKQEVPLVNGGTLQNPGNVQAKPILKIKGTGNGILTINDFETGLENVQSELVIDMERHLVYKDVLSAWDNIVRTERHRMPLFDVGQNKISWTGSFTITAVPNWGVKV
MADTIEVDGKQFAVDEEGYLSNLNDWVPGVADVMAKQDNLELTEEHWDIINFLREYYEEYQIAPAVRVLTKAVGKKLGKEKGNSKYLYSLFPYGPAKQACRFAGLPKPTGCV
GMSDQRYNLRGVSASKEDVHNAIKNIDKGIFPKAFCKIIPDILGGDPEYCNIMHADGAGTKSSLAYMYWKETGDLSVWKGIAQDALIMNIDDLLCVGAVDNILVSSTIGRNKLLVPGEVISAIINGTDELLAELREMGVGCYATGGETADVGDLVRTIIVDSTVTCRMKRSDVIDNKNIQGGDVIVGLASSGQATYEKEYNGGMGSNGLTSARHDVFSKYLAKKYPESYDAAVPKELVYSGGLKLTDKIEELGIDAGKMVLSPTRTYAPVIKVLLDKLRSQIHGMVHCSGGAQTKVMHFVENKRVTKDNLFPIPPLFRTIQEQSGTDWSEMYKVFNMGHRMEIYIAPEHAEEVIGISKSFGIDAQIVGFVEEADKNELIIESEKGRFTY

Soluble on expression in E. coli, not soluble:
PDIDGGILFLEDVGEQPYRIERMLNTLYLSGILKKQRAIVFGNFRMEKIRDVYDPSYDFSAVANHVSRTAKIPVLTGFPFGHIADKITFPLGAHARIRMNGNSGYSVAFEGYPTLDASALTLDTLLPPPDLPIFPESGVADISE
MSTTRKLILANIHGVDKPGVTAELTAILAKHNAFILDIGQADIHNNLSLGILFQTDESHSGSILKDLLFKSYELDVTVRFEPITEEAYSEWVGMQGRNRYIITVVARKITAEMIAGIARSSAEQGLNIDDIKRLTGRIPLNETDRSPKASVEFSMRGTPTDIEKLQRNFMEMASQLNMDISFQRESMFR
MKKLEIEFEQVVKQYKNTIYTVCFMFSKDSREVNDLFQDVLVNLWKGFDTFKGESNIGTWIWRVSLNTCISSDRKKKIVSVPLIMGIDLFEDRDEDTTQIKMLYNRISRLKHFDRAIVLLWLENFSYEEIAAIVGISVKNVSVRLFRIKEELKKMSNN
MTDARPRICILGGGFGGLYTALRLGQLSWEGHTPPEIVLVDQRDRFLFAPFLYELVTEEMQTWEIAPPFVELLAESGVIFRQAEVTAIDFDHQKVLLNDQDKGTESLAFDQLVIALGGQTPLPNLPGLKDYGLGFRTLEDAYKLKQKLKSLEQADAEKIRIAIVGGGYSGVELAAKLGDRLGERGRIRIIERGKEILAMSPEFNRQQAQASLSAKGIWVDTETTVTAITATDVTLQFREQEDVIPVDLVLWTVGTTVSPLIRNLALPHNDQGQLRTNAQLQVEGKTNIFALGDGAEGRDASGQLIPTTAQGAFQQTDYCAWNIWANLTGRPLLPCRYQPLGEMLALGTDGAVLSGLGIKLSGPAALLARRLVYLYRFPTWQHQLTVGLNWLTRPLGDWLKNEPSLEHHHHHH
MGSDKIHHHHHHMLEHKIDFMVTLEVKEANANGDPLNGNMPRTDAKGYGVMSDVSIKRKIRNRLQDMGKSIFVQANERIEDDFRSLEKRFSQHFTAKTPDKEIEEKANALWFDVRAFGQVFTYLKKSIGVRGPVSISMAKSLEPIVISSLQITRSTNGMEAKNNSGRSSDTMGTKHFVDYGVYVLKGSINAYFAEKTGFSQEDAEAIKEVLVSLFENDASSARPEGSMRVCEVFWFTHSSKLGNVSSARVFDLLEYHQSIEEKSTYDAYQIHLNQEKLAKYEAKGLTLEILEGL
MGSDKIHHHHHHADSDDENSNFSSGITGMNLSAEVLKHQPMVEKYARENGISEYVNVLLAIIQVESGGTAEDVMQSSESLGLPPNSLDTESSIKQGCKYFASLLSSSKNQGIDDLNVAIQSYNYGGGYVGYVAGKGKKHTFNLAESFAREKSGGKKVTYTNPIAVAKNGGWRWNYGNMFYVELVNQYLTVPQVSGELAQKVMNEALKYQGWKYVYGGSNPNTSFDCSGLTQWCYGKAGISLPRTAQAQYDATQHLPLSQAKAGDLVFFHSTYNAGSYVTHVGIYVGNNQMYHAGDPIGYADLSSSYWQQHLIGAGRVKQ
AGKTLYGKLWDIHEVARRDDGSSLIYIDRHILHEVTSPQAFEGLRLAGRPLWRVNANIATPDHNVPTTKAERQGSLLSIADTVSRLQVQTLDENCDDFGIFEFKMNDVRQGIVHVIGPEQGATLPGMTVVCGDSHTSTHGAFGALAHGIGTSEVEHVLATQCLVTQKMKN
MRNVLKAETLERKFPLLSVENGCIVSKDADLTVAFEVELPELYTVTAEEYEAMHSTWIKAARVLPEHSIVCKQDWFTKESYRPQNGGEEQSFLSRSYERHFNERPYLNHRCFLYLTKTTRERNRRQSDFSTLCRGFLLPREITDKDMAARFLEAVEQFEHIVNDSGHIRLRRLETEEITGTRERPGLVEKYLSLSMEDETAVLQDICLKPGRMRIGDKRLCLHTLSDTEDLPGKLSTDMRYERMSTDRSDCRLSFAAPVGLLLSCNHIYSQYVFIDNAQKILQMMEKNSRNMLSLSQYSRSNAVNQEWTEMYLDEAHTKGVLPVRCHCNVIAWAEDAEEFRRIRNDTGSQLAMMECTPRYNTVDTPVLYWAGIPGNAGDFPAEESFYTFLEQAVCLFAGETNYRSSPSPFGIRMADRQNGIPVHVDISDLPMKRGIITNRNKFILGPSGSGKSFFTNHLVRNYYEQGAHILLVDTGNSYQGLCRMIHERTRGGDGIYITYEEDNPISFNPFYTDSGQFDVEKRESIKTLILTLWKREDEAPKRSEEVALSGAVNAYIRKITENREARPDFNGFYEFVDGDYRRMIAEKKVREKDFDIDGFLNVLEPFYKGGDYDFLLNSDRELDLTNRRFIVFELDNISGNKVLLPVVTLIIMETFIAKMRRLKGIRKVILIEECWKALMSANMSGYIQYLFKTVRKYFGEAVVVTQEVDDIISSPIVKEAIINNSDCKILLDQRKYMNKFEHIQRLLGLTEKEKSQILSINQANHPGRFYREVWIGLGGTRSAVYATEVSAEEYFTFTTEESEKLEVQRLAEELDGNLELAIRRMAERKREEQRQVSIPKREQ
SLPIDAVLPALRQALTTRHEAVLEAPPGAGKTTRVPLALLEETWLAGQTILMLEPRRLAARAAAERLASELGEKVGETVGYRIRLESCVGPKTRIEVVTEGILTRCLQDDPALEGVGLLIFDEFHVLPFA
MNLLQHIAQSRQQLRKSELKVADHVLNDPASVMHSSMAELAHGVGVSEPTIVRFCRAIGCSGFQDLKLKLAQSLAAGASFGQFSIHESDSVADFSLKIFDTTLHSLMEVREHLDTHALERAIAAIAHAQRVEFYGFGASGAVASDAQHKFFRLLLSAAAYSDPHMQAMSAVTLKPSDVAICISQSGRSKDLLITANLVREAGATLITLCPSQTPLADLATVNLAIDVHEDTDIYTPLTSRIAHLVVIDVLAMGVAMARGPDLVNHLKSVKRSLRSLRLSPKVMKNQEERGEPS
MGSDKIHHHHHHAHELEANEKYPGKSVKAQTRKEIVTFFSESLSGKTTTFDAGKPLKLSEVEHYRDVVWQLWKEANDGFKEEKLIALDTLSSASTGYWKLPDSLEPNAVMPYYWGMKGTDEIGNELPLFLYLHGSGPKEREWSTGLNICRNFDDAPSVYFIPQIPNEGEYYRWWQKAKQFAWEKLLRQSLLLGKIDPNRVYVFGISEGGYGSQRLASFYADYWAAAGPMAGGEPLKNAPAENCSNIAFSLRTGDKDTGFYRNTLTGYVREAFDSLAHQHPGYFTHKIELIPGMGHSIDYRPTTPWLKQYVRNPYPKYVSWENFEMDGLYRKGFYNLYVKERSDEEGKSRTYYEMSISGNHISLKVDDVVYEATEKDQRWGIEMKFAKKYAQAHKGKVVIYLCDELVDLTEKVTLTVNGKKVFEGKVKADLKNMVNSCAVFFDPQRLYPAAIEVELK
EGLNICKKIMVISDKNDAISEFIIKELERGCTIIDGKGGYTGKDTYILYTVLNRKEFIRLRIFIKETDPNAFITISDAKEVLGEGFKEI
